These results are taken from patent US20240117018A1.

Common to all, as to experiment: cell-based or functional assay
For assay [1], the target named is HIV-1 Env of pseudovirus BJOX009000.02.4 (HIV-1).
Assay [2] deals with HIV-1 Env of pseudovirus R2184.c04 (HIV-1).
The target in assay [3] is HIV-1 Env of pseudovirus 211-9 (HIV-1).
The target in assay [4] is HIV-1 Env of pseudovirus 3817.v2.c59 (HIV-1).
The target of assay [5] is HIV-1 Env of pseudovirus BJOX010000.06.2 (HIV-1).
Assay [6] addresses HIV-1 Env of pseudovirus X2131_C1_B5 (HIV-1).
Assay [7] has as its target HIV-1 Env of pseudovirus X1193_c1 (HIV-1).
In assay [8] the target is HIV-1 Env of pseudovirus 3103.v3.c10 (HIV-1).
The target of assay [9] is HIV-1 Env of pseudovirus 3301.v1.c24 (HIV-1).
In assay [10] the target is HIV-1 Env of pseudovirus P1981_C5_3 (HIV-1).
The target in assay [11] is HIV-1 Env of pseudovirus BJOX028000.10.3 (HIV-1).
Assay [12] deals with HIV-1 Env of pseudovirus C3347.c11 (HIV-1).
Assay [13] has as its target HIV-1 Env of pseudovirus 231966.c02 (HIV-1).
For assay [14], the target named is HIV-1 Env of pseudovirus C1080.c03 (HIV-1).
Assay [15] addresses HIV-1 Env of pseudovirus R1166.c01 (HIV-1).
Assay [16] concerns the target HIV-1 Env of pseudovirus X2088_c9 (HIV-1).
Assay [17] deals with HIV-1 Env of pseudovirus 6811.v7.c18 (HIV-1).
The target of assay [18] is HIV-1 Env of pseudovirus 235-47 (HIV-1).
Assay [19] has as its target HIV-1 Env of pseudovirus 0815.v3.c3 (HIV-1).
The target in assay [20] is HIV-1 Env of pseudovirus 191955_A11 (HIV-1).
Assay [21] has as its target HIV-1 Env of pseudovirus P0402_c2_11 (HIV-1).
For assay [22], the target named is HIV-1 Env of pseudovirus T255-34 (HIV-1).
For assay [23], the target named is HIV-1 Env of pseudovirus 928-28 (HIV-1).
In assay [24] the target is HIV-1 Env of pseudovirus BJOX015000.11.5 (HIV-1).
The target in assay [25] is HIV-1 Env of pseudovirus T257-31 (HIV-1).
The target in assay [26] is HIV-1 Env of pseudovirus 6041.v3.c23 (HIV-1).
Assay [27] addresses HIV-1 Env of pseudovirus BJOX025000.01.1 (HIV-1).
Assay [28] deals with HIV-1 Env of pseudovirus C4118.c09 (HIV-1).
The target of assay [29] is HIV-1 Env of pseudovirus T251-18 (HIV-1).
The target in assay [30] is HIV-1 Env of pseudovirus 6540.v4.c1 (HIV-1).
For assay [31], the target named is HIV-1 Env of pseudovirus 191084 B7-19 (HIV-1).
The target of assay [32] is HIV-1 Env of pseudovirus R3265.c06 (HIV-1).
Assay [33] concerns the target HIV-1 Env of pseudovirus X1632_S2_B10 (HIV-1).
The target in assay [34] is HIV-1 Env of pseudovirus 89-F1_2_25 (HIV-1).
Assay [35] has as its target HIV-1 Env of pseudovirus 263-8 (HIV-1).

As to PGT151 (antibody), the IC50 (Titer in TZM.bl cells) in [1] is above 50 µg/mL; in assay [2] it was above 50 µg/mL; in assay [3] it was 0.002 µg/mL; in assay [4] it was above 50 µg/mL; in assay [5], above 50 µg/mL; in assay [6], 0.007 µg/mL. For the same substance, the IC50 (Titer in TZM.bl cells) in assay [7] is 0.004 µg/mL; in assay [8], 0.014 µg/mL; in assay [9], 0.002 µg/mL; in assay [10], 0.021 µg/mL; in assay [11], above 50 µg/mL; in assay [12], above 50 µg/mL. Besides, the IC50 (Titer in TZM.bl cells) in assay [13] is 0.025 µg/mL; in assay [14], above 50 µg/mL; in assay [15], above 50 µg/mL; in assay [16], above 50 µg/mL; in assay [17], above 50 µg/mL; in assay [18], 38.1 µg/mL. The IC50 (Titer in TZM.bl cells) was above 50 µg/mL in [19]; below 0.001 µg/mL in assay [21]; 0.002 µg/mL in [22]; above 50 µg/mL in assay [24]; 0.004 µg/mL in assay [26]; above 50 µg/mL in [27]. Further, the IC50 (Titer in TZM.bl cells) is above 50 µg/mL in assay [28]; 0.327 µg/mL in [29]; 0.006 µg/mL in assay [30]; above 50 µg/mL in [32]; 0.061 µg/mL in assay [33]; 22.9 µg/mL in [34]. Also, the IC80 (Titer in TZM.bl cells) in [1] is above 50 µg/mL; in [2], above 50 µg/mL; in [3], 0.01 µg/mL; in assay [4], above 50 µg/mL; in assay [5] it was above 50 µg/mL; in assay [6] it was 0.036 µg/mL. Moreover, the IC80 (Titer in TZM.bl cells) is 0.027 µg/mL in assay [7]; 0.202 µg/mL in assay [8]; 0.019 µg/mL in [9]; above 50 µg/mL in assay [10]; above 50 µg/mL in assay [11]; above 50 µg/mL in assay [12]. The IC80 (Titer in TZM.bl cells) in [13] is 0.183 µg/mL; in [14] it was above 50 µg/mL; in assay [15] it was above 50 µg/mL; in assay [16], above 50 µg/mL; in [17] it was above 50 µg/mL; in assay [18] it was above 50 µg/mL. Moreover, the IC80 (Titer in TZM.bl cells) in assay [19] is above 50 µg/mL; in [21], 0.004 µg/mL; in [22], 0.01 µg/mL; in assay [24] it was above 50 µg/mL; in assay [26] it was 0.024 µg/mL; in assay [27], above 50 µg/mL. For the same substance, the IC80 (Titer in TZM.bl cells) was above 50 µg/mL in assay [28]; above 50 µg/mL in assay [29]; 0.03 µg/mL in [30]; above 50 µg/mL in assay [32]; above 50 µg/mL in assay [33]; above 50 µg/mL in assay [34]. Also, the neutralization IC50 in assay [20] was 0.004 µg/mL; in assay [23], above 50 µg/mL; in assay [25] it was 0.003 µg/mL; in assay [31], 0.004 µg/mL; in [35], above 50 µg/mL. In addition, the neutralization IC80 is 0.014 µg/mL in assay [20]; above 50 µg/mL in assay [23]; 0.01 µg/mL in assay [25]; 0.016 µg/mL in assay [31]; above 50 µg/mL in [35].
As a reminder, the IC50 is the concentration at which inhibition is half-maximal. Lower therefore signals greater potency in that assay. In general, IC80 refers to the concentration at which the effect reaches the 80% level. 8ANC195 (antibody): the IC50 in [20] is above 50 µg/mL; in assay [23], above 50 µg/mL; in assay [25], 0.32 µg/mL; in [31], above 50 µg/mL; in [35], above 50 µg/mL. For the same substance, the IC80 in assay [20] is above 50 µg/mL; in assay [23] it was above 50 µg/mL; in assay [25], 3.89 µg/mL; in assay [31], above 50 µg/mL; in assay [35], above 50 µg/mL.
Take NIH 45-46 (antibody): the IC50 in assay [20] is 0.11 µg/mL; in assay [23] it was 0.1 µg/mL; in assay [25], 0.23 µg/mL; in assay [31], 0.02 µg/mL; in assay [35] it was 0.05 µg/mL. For the same substance, the IC80 turned out to be 0.43 µg/mL in [20]; 0.39 µg/mL in assay [23]; 1.11 µg/mL in assay [25]; 0.07 µg/mL in [31]; 0.1 µg/mL in assay [35].
Turning to VRC07 (antibody), the IC50 in assay [20] is 0.978 µg/mL; in assay [23], 0.278 µg/mL; in [25], 0.421 µg/mL; in assay [31] it was 0.061 µg/mL; in [35], 0.103 µg/mL. The IC80 in assay [20] was 4.82 µg/mL; in [23] it was 0.957 µg/mL; in assay [25] it was 3.17 µg/mL; in assay [31], 0.209 µg/mL; in [35], 0.282 µg/mL.
For 3BNC117 (antibody), the IC50 in assay [20] is above 50 µg/mL; in assay [23] it was 0.15 µg/mL; in [25] it was 0.06 µg/mL; in assay [31], 0.07 µg/mL; in [35] it was 0.005 µg/mL. In addition, the IC80 in [20] is above 50 µg/mL; in [23] it was 0.55 µg/mL; in [25], 0.37 µg/mL; in assay [31], 0.23 µg/mL; in [35], 0.04 µg/mL.
